Data published in PMC8236918, “CYRI-A limits invasive migration through macropinosome formation and integrin uptake regulation” (The Journal of Cell Biology, 2021).

Molecular target: untagged full-length RAC1 Q61L (UniProt P63000 1-192, Q61L)
Assay: SPR; MBP-tagged CYRI immobilised on Sensor chip CM5; purified untagged RAC1 Q61L titrated at different concentrations; steady-state responses fitted to a 1:1 binding model
Settings: both partners purified

Kd: ~38 µM
B1: MBP-tagged full-length CYRI-B (natural protein)
chain: MGNLLKVLTCTDLEQGPNFFLDFENAQPTESEKEIYNQVNVVLKDAEGILEDLQSYRGAGHEIREAIQHPADEKLQEKAWGAVVPLVGKLKKFYEFSQRLEAALRGLLGALTSTPYSPTQHLEREQALAKQFAEILHFTLRFDELKMTNPAIQNDFSYYRRTLSRMRINNVPAEGENEVNNELANRMSLFYAEATPMLKTLSDATTKFVSENKNLPIENTTDCLSTMASVCRVMLETPEYRSRFTNEETVSFCLRVMVGVIILYDHVHPVGAFAKTSKIDMKGCIKVLKDQPPNSVEGLLNALRYTTKHLNDETTSKQIRSMLQ
notes: CYRI-B (encoded by FAM49B), full length; source: E. coli BL21, purified (MBPTrap HP, size-exclusion chromatography)
